Where a chain is given by its changes, count along the chain named.
B1: hPA-001 (antibody, V domains shown)
VH: QVTLKESGPGILQPSQTLSLTCSFSGFSLTTFGMGVGWIRQPSGKGLEWLAHIWWDDDKYYNPALKSRLTISKDISKNQVFLKIANVDTADTATYYCARIEDYGNPFDYWGQGTTLTVSS
VL: DIQMNQSPSSLSASLGDTITITCHASQNIHVWLSWYQQKPGNIPKLLIYKASNLHTGVPSRFSGSGSGTGFTLTISSLQPEDIATYYCQQGQSYPLTFGAGTKLELK
notes: Mouse hybridoma antibody, tested as conditioned medium
B2: hPA-002 (antibody, V domains shown)
VH: B1 VH with K5Q, T30S, I75T, N86S, T92I, I100V
VL: B1 VL with S34N, L73V
notes: Mouse hybridoma antibody, tested as conditioned medium or purified; also called hPA-002 A647
B3: hPA-004 (antibody, V domains shown)
VH: QVTLKESGPGMLQPSQTLSLACSFSGFSLNSFGVAVGWIRQPSGKGLEWLAHIWWDDDKSYNPALKSRLTISKDTSKNQVFLKLANVDTADTATYYCTRIADYGNHFDYWGQGTALTVSS
VL: B1 VL with I29S, S77G, S93T, L96F, A100S, L106I
notes: Mouse hybridoma antibody, tested as conditioned medium or purified
B4: hPA-005 (antibody, V domains shown)
VH: QVILKESGPGILQSSQTLSLTCSFSGFSLSTFGMGVGWIRQPSGKGLESLAHIWWDDDKFYNPALKSRLTISKDTSKSQVFLKIANVDTADIATYYCTRIEDYGSYFAYWGQGTTLTVSS
VL: B1 VL with I2V, T18P, S34N, K39R, K45R, L96Y, A100G, L106I
notes: as for B3

Molecular target: T1, murine PILRA (mouse, UniProt Q2YFS3 32-302)
T1 construct: Ectopically expressed on 293 cells; also called mPILRA; mouse PILRA
Assay: flow cytometry, conditioned medium on 293 cells expressing the target
Method: (§1) Antibodies against human PILRA were generated as follows. […] PILRA^{-/-} PILRB1^{-/-} PILRB2^{-/-} mice were immunized with human PILRA protein, and hybridomas prepared using standard methods. 300 conditioned media samples containing antibodies were assessed for binding to parental 293 cells or 293 cells ectopically expressing hPILRA, hPILRB, cPILRA, mPILRA, or mPILRB by FACS. […] Six antibodies were identified as human PILRA binders using a cutoff of greater than 5-fold binding. […] No antibody was identified that bound mouse PILRA.

T1 sequence (Q2YFS3 32-302): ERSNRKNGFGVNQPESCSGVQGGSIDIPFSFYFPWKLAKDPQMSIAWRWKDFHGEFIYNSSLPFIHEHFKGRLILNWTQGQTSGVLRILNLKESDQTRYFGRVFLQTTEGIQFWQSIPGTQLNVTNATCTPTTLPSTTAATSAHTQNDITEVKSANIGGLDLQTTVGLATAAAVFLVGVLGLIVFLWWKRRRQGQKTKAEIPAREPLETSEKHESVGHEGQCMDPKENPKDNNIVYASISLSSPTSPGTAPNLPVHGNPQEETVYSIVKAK

Question: Does B1 bind?
Answer: no binding (tested: cutoff of greater than 5-fold binding)

Question: Does B2 bind?
Answer: no binding (tested: cutoff of greater than 5-fold binding)

Question: Does B3 bind?
Answer: no binding (tested: cutoff of greater than 5-fold binding)

Question: Does B4 bind?
Answer: no binding (tested: cutoff of greater than 5-fold binding)

Molecular target: T2, soluble human PILRA hIgG1 Fc construct (human)
T2 construct: also called PILRA Fc; PILRA-Fc
Assay: flow cytometry; blocking of PILRA Fc binding to human CD3+ T cells, 3 donors, average ± SEM
Method: Purified anti-hPILRA antibodies were evaluated for their ability to block binding of PILRA Fc to human CD3+ T cells from 3 separate donors in order to calculate the ligand blocking potency of these antibodies.

T2 sequence (chain, as listed by the source limits assumed): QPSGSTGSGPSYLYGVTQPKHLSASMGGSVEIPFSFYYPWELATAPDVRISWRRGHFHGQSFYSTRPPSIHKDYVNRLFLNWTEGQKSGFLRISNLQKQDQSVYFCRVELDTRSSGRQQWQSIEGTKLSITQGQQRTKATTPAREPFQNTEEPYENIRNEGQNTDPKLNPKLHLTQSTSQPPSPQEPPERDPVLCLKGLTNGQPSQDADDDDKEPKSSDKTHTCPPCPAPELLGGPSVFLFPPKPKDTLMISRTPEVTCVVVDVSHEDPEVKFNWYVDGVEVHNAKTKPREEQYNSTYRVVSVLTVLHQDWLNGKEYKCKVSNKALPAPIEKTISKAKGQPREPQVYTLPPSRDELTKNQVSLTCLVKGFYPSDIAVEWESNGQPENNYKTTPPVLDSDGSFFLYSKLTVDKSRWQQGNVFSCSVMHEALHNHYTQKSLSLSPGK

Question: For B2, which IC50 is on record?
Answer: 0.75 nM

Question: B3 was tested. Which IC50 did it give?
Answer: 1.7 nM

Question: For B4, which IC50 is on record?
Answer: 1.9 nM

Molecular target: T3, human PILRA (human, UniProt Q9UKJ1 20-303)
T3 construct: also called hPILRA
Assay: flow cytometry, hybridoma conditioned medium on 293 cells expressing the target; MFI relative to 293 parental cells
Method: as §1

T3 sequence (Q9UKJ1 20-303): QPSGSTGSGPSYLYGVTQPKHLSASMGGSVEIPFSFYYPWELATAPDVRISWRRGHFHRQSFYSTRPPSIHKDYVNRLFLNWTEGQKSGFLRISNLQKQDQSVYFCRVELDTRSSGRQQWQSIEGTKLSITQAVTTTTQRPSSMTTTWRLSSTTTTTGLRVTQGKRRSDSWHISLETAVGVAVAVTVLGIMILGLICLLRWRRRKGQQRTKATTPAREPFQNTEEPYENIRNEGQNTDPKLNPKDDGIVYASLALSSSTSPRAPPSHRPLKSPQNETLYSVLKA

Question: With B1 as the binder, how does the “MFI relative to 293 parental cells” value read?
Answer: 131 fold over 293 parental cells

Question: Which “MFI relative to 293 parental cells” value does the source give for B2 here?
Answer: 133 fold over 293 parental cells

Question: How did the “MFI relative to 293 parental cells” value turn out when B3 was run?
Answer: 83.9 fold over 293 parental cells

Question: With B4 as the binder, how does the “MFI relative to 293 parental cells” value read?
Answer: 104 fold over 293 parental cells

Molecular target: T4, human PILRB (human, UniProt Q9UKJ0 20-227)
T4 construct: Ectopically expressed on 293 cells; also called hPILRB
Assay: as above
Method: as §1

T4 sequence (Q9UKJ0 20-227): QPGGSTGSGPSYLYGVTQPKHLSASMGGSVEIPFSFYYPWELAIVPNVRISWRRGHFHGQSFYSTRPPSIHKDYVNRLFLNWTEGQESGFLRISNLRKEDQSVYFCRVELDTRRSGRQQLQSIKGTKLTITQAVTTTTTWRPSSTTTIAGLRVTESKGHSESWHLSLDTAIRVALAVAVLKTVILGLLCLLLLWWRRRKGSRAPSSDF

Question: With B1 as the binder, how does the “MFI relative to 293 parental cells” value read?
Answer: 1.3 fold over 293 parental cells

Question: How did the “MFI relative to 293 parental cells” value turn out when B2 was run?
Answer: 1.2 fold over 293 parental cells

Question: B4 was tested. Which “MFI relative to 293 parental cells” value did it give?
Answer: 1.3 fold over 293 parental cells

Molecular target: T5, cynomolgus monkey PILRA (cynomolgus monkey)
T5 construct: Ectopically expressed on 293 cells; also called cPILRA
Assay: as above
Method: as §1

T5 sequence (chain, as listed by the source): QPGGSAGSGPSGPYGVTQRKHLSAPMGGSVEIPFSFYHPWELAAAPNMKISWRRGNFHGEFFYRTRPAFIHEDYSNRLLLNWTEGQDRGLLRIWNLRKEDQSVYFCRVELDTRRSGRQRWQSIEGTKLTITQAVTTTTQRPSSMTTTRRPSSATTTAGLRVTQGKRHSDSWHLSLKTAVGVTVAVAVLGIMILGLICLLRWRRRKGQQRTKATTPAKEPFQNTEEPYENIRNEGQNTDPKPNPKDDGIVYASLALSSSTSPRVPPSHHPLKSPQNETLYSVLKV

Question: Which “MFI relative to 293 parental cells” value does the source give for B1 here?
Answer: 0.5 fold over 293 parental cells

Question: For B2, which “MFI relative to 293 parental cells” value is on record?
Answer: 0.3 fold over 293 parental cells

Question: B4 was tested. Which “MFI relative to 293 parental cells” value did it give?
Answer: 0.5 fold over 293 parental cells

Molecular target: T1, murine PILRA
Assay: as above
Method: as §1

Question: For B1, which “MFI relative to 293 parental cells” value is on record?
Answer: 0.5 fold over 293 parental cells

Question: With B2 as the binder, how does the “MFI relative to 293 parental cells” value read?
Answer: 0.3 fold over 293 parental cells

Question: B3 was tested. Which “MFI relative to 293 parental cells” value did it give?
Answer: 0.6 fold over 293 parental cells

Question: B4 was tested. Which “MFI relative to 293 parental cells” value did it give?
Answer: 0.4 fold over 293 parental cells

Molecular target: T6, murine PILRB (mPILRB1) (mouse, UniProt Q2YFS2 29-224)
T6 construct: whole, on cells; Ectopically expressed on 293 cells; also called mouse PILRB
Assay: as above
Method: as §1

T6 sequence (Q2YFS2 29-224): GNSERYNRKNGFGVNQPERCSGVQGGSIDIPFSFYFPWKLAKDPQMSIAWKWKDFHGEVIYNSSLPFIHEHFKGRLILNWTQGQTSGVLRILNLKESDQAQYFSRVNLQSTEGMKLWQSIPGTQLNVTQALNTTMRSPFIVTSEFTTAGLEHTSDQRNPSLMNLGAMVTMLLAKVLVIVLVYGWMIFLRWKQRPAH

Question: How did the “MFI relative to 293 parental cells” value turn out when B1 was run?
Answer: 0.5 fold over 293 parental cells

Question: How did the “MFI relative to 293 parental cells” value turn out when B2 was run?
Answer: 0.3 fold over 293 parental cells

Question: For B3, which “MFI relative to 293 parental cells” value is on record?
Answer: 0.6 fold over 293 parental cells

Question: Which “MFI relative to 293 parental cells” value does the source give for B4 here?
Answer: 0.5 fold over 293 parental cells

Reference: patent publication US20230220074A1 (Alector, published 2023)
